This note sets out measurements from PMC9502857, “Heterologous Expression and Catalytic Properties of Codon-Optimized Small-Sized Bromelain from MD2 Pineapple” (Molecules, 2022).

In the data set the test system is O=C(CNC(=O)OCc1ccccc1)Oc1ccc([N+](=O)[O-])cc1. The data set can be described thus: purified protein. The note with it: 20 mM Tris-HCl pH 8.0, 37 °C (methods; results pH 5.0), GST fusion.

In the case of “MD2-SBro (small-sized bromelain from MD2 pineapple) (Ananas comosus)”, the Km stood at 42.1 ± 3.81 µM, the Vmax came out at 0.432 µM/min, the kcat was 0.2 ± 0.008 s⁻¹ and the kcat/Km was 4750 ± 230 M⁻¹ s⁻¹.
